Biological target: T1, StcE′ E435D-His (as StcE′-His with glutamic to aspartic acid at residue 435; from pTB5, strain WAM2804) (E. coli O157:H7 EDL933 (plasmid pO157), UniProt O82882 36-898)
T1 sequence: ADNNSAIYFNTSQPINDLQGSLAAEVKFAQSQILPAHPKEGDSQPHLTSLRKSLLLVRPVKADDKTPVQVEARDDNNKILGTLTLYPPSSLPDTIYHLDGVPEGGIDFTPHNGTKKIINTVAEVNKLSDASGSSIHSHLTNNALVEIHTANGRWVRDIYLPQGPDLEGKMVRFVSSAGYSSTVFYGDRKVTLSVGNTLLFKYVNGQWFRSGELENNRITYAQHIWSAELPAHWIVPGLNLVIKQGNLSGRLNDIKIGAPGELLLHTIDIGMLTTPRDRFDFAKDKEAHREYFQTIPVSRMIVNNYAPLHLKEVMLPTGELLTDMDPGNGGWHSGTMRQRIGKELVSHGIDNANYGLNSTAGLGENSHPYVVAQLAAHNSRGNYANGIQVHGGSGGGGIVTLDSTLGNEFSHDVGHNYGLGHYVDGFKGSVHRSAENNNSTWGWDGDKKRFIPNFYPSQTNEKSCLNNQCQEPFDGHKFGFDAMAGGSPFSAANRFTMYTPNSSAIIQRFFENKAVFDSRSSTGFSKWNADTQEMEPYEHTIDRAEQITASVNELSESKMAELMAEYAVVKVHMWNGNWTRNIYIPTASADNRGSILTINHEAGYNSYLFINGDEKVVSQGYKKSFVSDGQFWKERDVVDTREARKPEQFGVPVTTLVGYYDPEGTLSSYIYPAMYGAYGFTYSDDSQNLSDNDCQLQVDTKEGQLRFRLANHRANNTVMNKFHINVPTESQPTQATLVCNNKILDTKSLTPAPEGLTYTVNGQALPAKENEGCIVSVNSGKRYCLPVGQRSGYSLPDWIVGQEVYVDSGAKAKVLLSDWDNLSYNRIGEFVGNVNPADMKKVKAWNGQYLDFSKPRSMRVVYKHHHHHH

B1: C1-esterase inhibitor (human plasma protease C1 inhibitor), purified or in human serum (other, UniProt P05155 23-500, looked up)
chain: NPNATSSSSQDPESLQDRGEGKVATTVISKMLFVEPILEVSSLPTTNSTTNSATKITANTTDEPTTQPTTEPTTQPTIQPTQPTTQLPTDSPTQPTTGSFCPGPVTLCSDLESHSTEAVLGDALVDFSLKLYHAFSAMKKVETNMAFSPFSIASLLTQVLLGAGENTKTNLESILSYPKDFTCVHQALKGFTTKGVTSVSQIFHSPDLAIRDTFVNASRTLYSSSPRVLSNNSDANLELINTWVAKNTNNKISRLLDSLPSDTRLVLLNAIYLSAKWKTTFDPKKTRMEPFHFKNSVIKVPMMNSKKYPVAHFIDQTLKAKVGQLQLSHNLSLVILVPQNLKHRLEDMEQALSPSVFKAIMEKLEMSKFQPTLLTLPRIKVTTSQDMLSIMEKLEFFDFSYDLNLCGLTEDPDLQVSAMQHQTVLELTETGVEAAAASAISVARTLLVFEVQQPFLFVLWDQQHKFPVFMGRVYDPRA
modifications: heavily glycosylated N-terminal domain
fold level of C1-INH on erythrocyte surfaces against that in the presence of StcE′-His: 22 fold
